Substitutions are numbered along the chain they refer to. Names may count otherwise. “Also recorded” adds a separate entry of the source. Read-outs that look alike come from different tables or passages of the source.
How the values were obtained:
CXCR4 = target: T1, CXCR4 (Homo sapiens, UniProt P61073); assay: Ca2+-flux assay of CXCR4 activation in THP-1 cells; format: cell-based
T1 construct: a Ca^2+-flux assay on CXCR4-expressing THP-1 cells; host or cells: THP-1
Source text: (§1) The Protein Data Bank (PDB), under accession numbers 2K01, 2K04, 2K03 and 2K05 contain coordinates for these structural models. Restraints employed for structure determination have been deposited in the Biological Magnetic Resonance Bank, accession numbers 15633, 15636, 15635 and 15637. […] THP-1 cells are a CXCR4-expressing monocyte leukemia cell line and were obtained from ATCC.
The inventors monitored activation of CXCR4 using THP-1 cells and a similar Ca^2+-flux assay.

THP-1 cells = assay: Transwell chemotaxis assay of THP-1 cells; format: cell-based
Source text: FIG. 5. […] C) Schematic illustration of the bell-shaped profile for CXCL12-α-mediated chemotaxis arising from changes in relative concentrations of chemokine monomer and dimer.
as §1

[1] = Pulsed-field gradient NMR translational diffusion, CXCL12-α monomer-dimer equilibrium; format: physicochemical; conditions: 10, 50 and 150 μM protein
Protocol: FIG. 1. […] The lines connecting the cysteines show where the intra- and intermolecular disulfide bonds are. […] Diffusion coefficients (Ds) of wild-type CXCL12 (black circles) in 20 mM sodium phosphate at pH 7.4 plotted versus chemokine concentration. […] D) N-terminal peptides corresponding to the first thirty-eight amino acids of CXCR4 are illustrated.

HIV-1 = conditions: compared with wild-type chemokine
Source text: Certain strains of HIV (X4 or dual tropic) utilize CXCR4 as a co-receptor, and this interaction is critical for fusion of the viral and T cell membranes in the process of HIV entry.

Heparin binding = assay: Heparin binding
Source text: Further, in addition to binding CXCR4, CXCL12 also binds to heparin found in the extracellular matrix on cell surfaces. The inventors have shown that the CXCL12α2 locked dimer of the present invention also binds heparin. Amino acid substitutions in CXCL12, including K24S, K27S, or K24S/K27S can prevent heparin binding and increase the half-life of CXCL12 in vivo; therefore, similar mutations in CXCL12α2 would likely prevent heparin binding and increase the in vivo half-life of the dimer.

CXCL12-α = target: T2, CXCL12-α (Homo sapiens, UniProt P48061); assay: Binding of CXCR4 N-terminal p38 peptides to CXCL12-α; conditions: read-out: apparent Kd
T2 construct: made in house; host or cells: E. coli
T2 sequence (P48061 22-89 limits assumed): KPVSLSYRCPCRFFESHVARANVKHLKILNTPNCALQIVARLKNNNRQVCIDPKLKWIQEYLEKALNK

[2] = Ca2+-flux, CXCR4-expressing THP-1 cells

T1 sequence (P61073 whole entry): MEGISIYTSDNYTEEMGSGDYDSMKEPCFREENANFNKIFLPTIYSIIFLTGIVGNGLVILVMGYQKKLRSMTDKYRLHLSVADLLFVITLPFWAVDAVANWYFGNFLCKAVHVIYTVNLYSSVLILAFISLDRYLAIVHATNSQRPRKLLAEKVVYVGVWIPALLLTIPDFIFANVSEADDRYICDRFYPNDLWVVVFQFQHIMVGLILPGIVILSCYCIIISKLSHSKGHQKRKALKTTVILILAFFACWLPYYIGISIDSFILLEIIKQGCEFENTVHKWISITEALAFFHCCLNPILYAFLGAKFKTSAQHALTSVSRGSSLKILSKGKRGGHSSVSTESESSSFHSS

With “CXCL12-α2: covalently locked dimer comprising two CXCL12 L36C/A65C sequences (SEQ ID NO: 1)” the CXCR4 functional character (CXCR4; detection of secondary messenger calcium) was “partial CXCR4 agonist”, the “chemotactic response” value (THP-1 cells) was “failed to attract cells; also recorded: does not chemoattract THP-1 cells” and the “diffusion coefficient Ds” value [1] was 1.08-1.09 ×10^−6 cm^2s^−1. The “predicted inhibition of HIV-1 entry into human T cells” value (HIV-1) was “more effective at lower concentrations” and the heparin binding (Heparin binding) was “binds heparin”.

In the case of CC[C@H](C)[C@H](NC(=O)CNC(=O)[C@H](CCC(=O)O)NC(=O)[C@H](CCSC)NC(=O)[C@H](CO)NC(=O)CN)C(=O)N[C@@H](CO)C(=O)N[C@H](C(=O)N[C@@H](Cc1ccc(OS(=O)(=O)O)cc1)C(=O)N[C@H](C(=O)N[C@@H](CO)C(=O)N[C@@H](CC(=O)O)C(=O)N[C@@H](CC(N)=O)C(=O)N[C@@H](Cc1ccc(OS(=O)(=O)O)cc1)C(=O)N[C@H](C(=O)N[C@@H](CCC(=O)O)C(=O)N[C@@H](CCC(=O)O)C(=O)N[C@@H](CCSC)C(=O)NCC(=O)N[C@@H](CO)C(=O)NCC(=O)N[C@@H](CC(=O)O)C(=O)N[C@@H](Cc1ccc(OS(=O)(=O)O)cc1)C(=O)N[C@@H](CC(=O)O)C(=O)N[C@@H](CO)C(=O)N[C@@H](CCSC)C(=O)N[C@@H](CCCCN)C(=O)N[C@@H](CCC(=O)O)C(=O)N1CCC[C@H]1C(=O)N[C@@H](C)C(=O)N[C@@H](Cc1ccccc1)C(=O)N[C@@H](CCCNC(=N)N)C(=O)N[C@@H](CCC(=O)O)C(=O)N[C@@H](CCC(=O)O)C(=O)N[C@@H](CC(N)=O)C(=O)N[C@@H](C)C(=O)N[C@@H](CC(N)=O)C(=O)N[C@@H](Cc1ccccc1)C(=O)N[C@@H](CC(N)=O)C(=O)N[C@@H](CCCCN)C(=O)O)[C@@H](C)O)[C@@H](C)O)[C@@H](C)CC [p38-sY3], the Kd (CXCL12-α) is reported as 200 ± 200 nM.

B1: R20A: wild-type CXCL12-α with R20 replaced by alanine (protein)
chain: KPVSLSYRCPCRFFESHVAAANVKHLKILNTPNCACQIVARLKNNNRQVCIDPKLKWIQEYLEKCLNK
With B1 the EC50 (CXCR4; [2]) was 4.3 ± 0.6 nM and the “EC50, CXCR4 activation” value (CXCR4; [2]) was “no change in EC50”.

B2: R41A: CXCL12-α mutant R41A (protein)
chain: B1 chain with A20R, R41A
In the case of B2, the EC50 (CXCR4; [2]) is reported as 4.3 ± 0.9 nM.

B3: R47A: CXCL12-α mutant R47A (protein)
chain: B1 chain with A20R, R47A
In the case of B3, the EC50 (CXCR4; [2]) is reported as 14.1 nM.

B4: K27A: CXCL12-α mutant, alanine at K27 (protein)
chain: B1 chain with A20R, K27A
With B4 the EC50 (CXCR4; [2]) was 10.1 nM.

B5: E63A: CXCL12-α mutant E63A (protein)
chain: B1 chain with A20R, E63A
In the case of B5, the EC50 (CXCR4; [2]) is reported as 3.7 ± 0.8 nM.

B6: K64A: CXCL12-α mutant K64A (protein)
chain: B1 chain with A20R, K64A
Work on B6 yielded an EC50 (CXCR4; [2]) of 5 ± 1.1 nM.

B7: V49A: CXCL12-α mutant V49A (protein)
chain: B1 chain with A20R, V49A
Molecule B7 has an EC50 (CXCR4; [2]) of 8.6 ± 2.4 nM.

B8: V39A: CXCL12-α mutant V39A (protein)
chain: B1 chain with A20R, V39A
B8 gave an EC50 (CXCR4; [2]) of 27.1 nM.

B9: H25R: dimerization-impaired, preferentially monomeric CXCL12-α variant (protein)
chain: B1 chain with A20R, H25R
modifications: ends and bridges not checked
notes: dimerization-impaired, preferentially monomeric CXCL12-α variant
With B9 the EC50 (CXCR4; [2]) was 5.1 ± 0.9 nM, the “chemotactic response” value (THP-1 cells; listed as CXCL12-α (H25R)) was “induces chemotaxis over a broader range” and the “chemotactic response” value (THP-1 cells; listed as CXCL12-α(H25R)) was “promotes cell migration much more strongly than the wild-type chemokine at higher concentrations”.

B10: K27E: CXCL12-α mutant, glutamic acid at K27 (protein)
chain: B1 chain with A20R, K27E
Molecule B10 has an EC50 (CXCR4; [2]) of 16.8 nM.

B11: R47E: CXCL12-α mutant, arginine 47 replaced by glutamic acid (protein)
chain: B1 chain with A20R, R47E
For B11, the EC50 (CXCR4; [2]) was 654 nM.

B12: E60A: CXCL12-α mutant E60A (protein)
chain: B1 chain with A20R, E60A
B12 gave an EC50 (CXCR4; [2]) of 4.1 ± 0.1 nM.

Reference: patent publication US9346871B2, “Engineered CXCL12 alpha locked dimer polypeptide” (The Medical College of Wisconsin, priority 2008, dated 2016)
